First the molecules themselves.
B1: FliF(Δ165–167) (natural protein, Salmonella enterica serovar Typhimurium)
chain: MSATASTATQPKPLEWLNRLRANPRIPLIVAGSAAVAIVVAMVLWAKTPDYRTLFSNLSDQDGGAIVAQLTQMNIPYRFANGSGAIEVPADKVHELRLRLAQQGLPKGGAVGFELLDQEKFGISQFSEQVNYQRALEGELARTIETLGPVKSARVHLAMPKPSLEQKSPSASVTVTLEPGRALDEGQISAVVHLVSSAVAGLPPGNVTLVDQSGHLLTQSNTSGRDLNDAQLKFANDVESRIQRRIEAILSPIVGNGNVHAQVTAQLDFANKEQTEEHYSPNGDASKATLRSRQLNISEQVGAGYPGGVPGALSNQPAPPNEAPIATPPTNQQNAQNTPQTSTSTNSNSAGPRSTQRNETSNYEVDRTIRHTKMNVGDIERLSVAVVVNYKTLADGKPLPLTADQMKQIEDLTREAMGFSDKRGDTLNVVNSPFSAVDNTGGELPFWQQQSFIDQLLAAGRWLLVLVVAWILWRKAVRPQLTRRVEEAKAAQEQAQVRQETEEAVEVRLSKDEQLQQRRANQRLGAEVMSQRIREMSDNDPRVVALVIRQWMSNDHE
B2: FliF(Δ214–220) (natural protein, Salmonella enterica serovar Typhimurium)
chain: MSATASTATQPKPLEWLNRLRANPRIPLIVAGSAAVAIVVAMVLWAKTPDYRTLFSNLSDQDGGAIVAQLTQMNIPYRFANGSGAIEVPADKVHELRLRLAQQGLPKGGAVGFELLDQEKFGISQFSEQVNYQRALEGELARTIETLGPVKSARVHLAMPKPSLFVREQKSPSASVTVTLEPGRALDEGQISAVVHLVSSAVAGLPPGNVTLVTQSNTSGRDLNDAQLKFANDVESRIQRRIEAILSPIVGNGNVHAQVTAQLDFANKEQTEEHYSPNGDASKATLRSRQLNISEQVGAGYPGGVPGALSNQPAPPNEAPIATPPTNQQNAQNTPQTSTSTNSNSAGPRSTQRNETSNYEVDRTIRHTKMNVGDIERLSVAVVVNYKTLADGKPLPLTADQMKQIEDLTREAMGFSDKRGDTLNVVNSPFSAVDNTGGELPFWQQQSFIDQLLAAGRWLLVLVVAWILWRKAVRPQLTRRVEEAKAAQEQAQVRQETEEAVEVRLSKDEQLQQRRANQRLGAEVMSQRIREMSDNDPRVVALVIRQWMSNDHE
B3: FliFΔ(221–227) (natural protein, Salmonella enterica serovar Typhimurium)
chain: MSATASTATQPKPLEWLNRLRANPRIPLIVAGSAAVAIVVAMVLWAKTPDYRTLFSNLSDQDGGAIVAQLTQMNIPYRFANGSGAIEVPADKVHELRLRLAQQGLPKGGAVGFELLDQEKFGISQFSEQVNYQRALEGELARTIETLGPVKSARVHLAMPKPSLFVREQKSPSASVTVTLEPGRALDEGQISAVVHLVSSAVAGLPPGNVTLVDQSGHLLRDLNDAQLKFANDVESRIQRRIEAILSPIVGNGNVHAQVTAQLDFANKEQTEEHYSPNGDASKATLRSRQLNISEQVGAGYPGGVPGALSNQPAPPNEAPIATPPTNQQNAQNTPQTSTSTNSNSAGPRSTQRNETSNYEVDRTIRHTKMNVGDIERLSVAVVVNYKTLADGKPLPLTADQMKQIEDLTREAMGFSDKRGDTLNVVNSPFSAVDNTGGELPFWQQQSFIDQLLAAGRWLLVLVVAWILWRKAVRPQLTRRVEEAKAAQEQAQVRQETEEAVEVRLSKDEQLQQRRANQRLGAEVMSQRIREMSDNDPRVVALVIRQWMSNDHE
B4: FliF(G217A) (natural protein, Salmonella enterica serovar Typhimurium)
chain: MSATASTATQPKPLEWLNRLRANPRIPLIVAGSAAVAIVVAMVLWAKTPDYRTLFSNLSDQDGGAIVAQLTQMNIPYRFANGSGAIEVPADKVHELRLRLAQQGLPKGGAVGFELLDQEKFGISQFSEQVNYQRALEGELARTIETLGPVKSARVHLAMPKPSLFVREQKSPSASVTVTLEPGRALDEGQISAVVHLVSSAVAGLPPGNVTLVDQSAHLLTQSNTSGRDLNDAQLKFANDVESRIQRRIEAILSPIVGNGNVHAQVTAQLDFANKEQTEEHYSPNGDASKATLRSRQLNISEQVGAGYPGGVPGALSNQPAPPNEAPIATPPTNQQNAQNTPQTSTSTNSNSAGPRSTQRNETSNYEVDRTIRHTKMNVGDIERLSVAVVVNYKTLADGKPLPLTADQMKQIEDLTREAMGFSDKRGDTLNVVNSPFSAVDNTGGELPFWQQQSFIDQLLAAGRWLLVLVVAWILWRKAVRPQLTRRVEEAKAAQEQAQVRQETEEAVEVRLSKDEQLQQRRANQRLGAEVMSQRIREMSDNDPRVVALVIRQWMSNDHE
B5: FliF(G217W) (natural protein, Salmonella enterica serovar Typhimurium)
chain: MSATASTATQPKPLEWLNRLRANPRIPLIVAGSAAVAIVVAMVLWAKTPDYRTLFSNLSDQDGGAIVAQLTQMNIPYRFANGSGAIEVPADKVHELRLRLAQQGLPKGGAVGFELLDQEKFGISQFSEQVNYQRALEGELARTIETLGPVKSARVHLAMPKPSLFVREQKSPSASVTVTLEPGRALDEGQISAVVHLVSSAVAGLPPGNVTLVDQSWHLLTQSNTSGRDLNDAQLKFANDVESRIQRRIEAILSPIVGNGNVHAQVTAQLDFANKEQTEEHYSPNGDASKATLRSRQLNISEQVGAGYPGGVPGALSNQPAPPNEAPIATPPTNQQNAQNTPQTSTSTNSNSAGPRSTQRNETSNYEVDRTIRHTKMNVGDIERLSVAVVVNYKTLADGKPLPLTADQMKQIEDLTREAMGFSDKRGDTLNVVNSPFSAVDNTGGELPFWQQQSFIDQLLAAGRWLLVLVVAWILWRKAVRPQLTRRVEEAKAAQEQAQVRQETEEAVEVRLSKDEQLQQRRANQRLGAEVMSQRIREMSDNDPRVVALVIRQWMSNDHE
B6: FliF(G217P) (natural protein, Salmonella enterica serovar Typhimurium)
chain: MSATASTATQPKPLEWLNRLRANPRIPLIVAGSAAVAIVVAMVLWAKTPDYRTLFSNLSDQDGGAIVAQLTQMNIPYRFANGSGAIEVPADKVHELRLRLAQQGLPKGGAVGFELLDQEKFGISQFSEQVNYQRALEGELARTIETLGPVKSARVHLAMPKPSLFVREQKSPSASVTVTLEPGRALDEGQISAVVHLVSSAVAGLPPGNVTLVDQSPHLLTQSNTSGRDLNDAQLKFANDVESRIQRRIEAILSPIVGNGNVHAQVTAQLDFANKEQTEEHYSPNGDASKATLRSRQLNISEQVGAGYPGGVPGALSNQPAPPNEAPIATPPTNQQNAQNTPQTSTSTNSNSAGPRSTQRNETSNYEVDRTIRHTKMNVGDIERLSVAVVVNYKTLADGKPLPLTADQMKQIEDLTREAMGFSDKRGDTLNVVNSPFSAVDNTGGELPFWQQQSFIDQLLAAGRWLLVLVVAWILWRKAVRPQLTRRVEEAKAAQEQAQVRQETEEAVEVRLSKDEQLQQRRANQRLGAEVMSQRIREMSDNDPRVVALVIRQWMSNDHE
B7: FliF (natural protein, Salmonella enterica serovar Typhimurium, UniProt P15928 1-560, looked up)
chain: MSATASTATQPKPLEWLNRLRANPRIPLIVAGSAAVAIVVAMVLWAKTPDYRTLFSNLSDQDGGAIVAQLTQMNIPYRFANGSGAIEVPADKVHELRLRLAQQGLPKGGAVGFELLDQEKFGISQFSEQVNYQRALEGELARTIETLGPVKSARVHLAMPKPSLFVREQKSPSASVTVTLEPGRALDEGQISAVVHLVSSAVAGLPPGNVTLVDQSGHLLTQSNTSGRDLNDAQLKFANDVESRIQRRIEAILSPIVGNGNVHAQVTAQLDFANKEQTEEHYSPNGDASKATLRSRQLNISEQVGAGYPGGVPGALSNQPAPPNEAPIATPPTNQQNAQNTPQTSTSTNSNSAGPRSTQRNETSNYEVDRTIRHTKMNVGDIERLSVAVVVNYKTLADGKPLPLTADQMKQIEDLTREAMGFSDKRGDTLNVVNSPFSAVDNTGGELPFWQQQSFIDQLLAAGRWLLVLVVAWILWRKAVRPQLTRRVEEAKAAQEQAQVRQETEEAVEVRLSKDEQLQQRRANQRLGAEVMSQRIREMSDNDPRVVALVIRQWMSNDHE

Where “and” joins values, the source holds several entries; their conditions need not be identical. Identical values can stand only once.

As a reminder, the stoichiometry N is a count of units in the complex or per binding partner.

The first data set concerns the molecule itself. Put plainly: negative-stain EM.
Turning to B1, the binding result is on record as “binds”.
In the case of B2, the binding result is recorded as “binds”.
For the protein B3, the binding result is on record as “binds”.
The same measure, in the same setting: to B4 belongs “binds”; to B5, “binds”.
Still for that read-out and setting: the result for B6 reads “binds”.

A further data set concerns the molecule itself. Description: cryo-EM structure.
B7: the “stoichiometry N” value is 33 and 34.
